Source: article PMC7997005, “Dynamic interplay between the co-opted Fis1 mitochondrial fission protein and membrane contact site proteins in supporting tombusvirus replication” (PLoS Pathogens, 2021)

Biological target: T1, TBSV Flag-p33 replication protein (tomato bushy stunt virus (TBSV), UniProt P15962 1-296)
T1 construct: TBSV p33 replication protein; co-expressed and co-purified with Flag-p92pol; source: yeast, expressed from a plasmid, in detergent-solubilized membrane fraction
T1 sequence: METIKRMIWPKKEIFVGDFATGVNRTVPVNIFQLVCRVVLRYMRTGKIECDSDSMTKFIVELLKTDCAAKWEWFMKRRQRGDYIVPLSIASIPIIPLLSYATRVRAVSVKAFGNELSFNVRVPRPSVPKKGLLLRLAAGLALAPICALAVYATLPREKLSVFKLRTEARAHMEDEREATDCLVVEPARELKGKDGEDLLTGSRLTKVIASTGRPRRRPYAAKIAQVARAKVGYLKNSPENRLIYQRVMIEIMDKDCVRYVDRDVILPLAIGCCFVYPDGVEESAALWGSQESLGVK
Assay: co-IP; Flag-affinity purification of Flag-tagged replication proteins (TBSV Flag-p33 + Flag-p92pol or CIRV Flag-p36 + Flag-p95pol) from the detergent-solubilized membrane fraction of yeast; samples cross-linked with formaldehyde; co-purified His6-tagged proteins detected with anti-His antibody; WT, fis1Δ, Fis1p- or Dnm1-ZZ-over-expressing yeast; cycloheximide time course
Details: partners not purified

B1: yeast His6-Sac1p (enzyme, S. cerevisiae, UniProt P32368 1-623, looked up)
chain: MTGPIVYVQNADGIFFKLAEGKGTNDAVIHLANQDQGVRVLGAEEFPVQGEVVKIASLMGFIKLKLNRYAIIANTVEETGRFNGHVFYRVLQHSIVSTKFNSRIDSEEAEYIKLLELHLKNSTFYFSYTYDLTNSLQRNEKVGPAASWKTADERFFWNHYLTEDLRNFAHQDPRIDSFIQPVIYGYAKTVDAVLNATPIVLGLITRRSIFRAGTRYFRRGVDKDGNVGNFNETEQILLAENPESEKIHVFSFLQTRGSVPIYWAEINNLKYKPNLVLGENSLDATKKHFDQQKELYGDNYLVNLVNQKGHELPVKEGYESVVHALNDPKIHYVYFDFHHECRKMQWHRVKLLIDHLEKLGLSNEDFFHKVIDSNGNTVEIVNEQHSVVRTNCMDCLDRTNVVQSVLAQWVLQKEFESADVVATGSTWEDNAPLLTSYQNLWADNADAVSVAYSGTGALKTDFTRTGKRTRLGAFNDFLNSASRYYQNNWTDGPRQDSYDLFLGGFRPHTASIKSPFPDRRPVYIQLIPMIICAALTVLGATIFFPKDRFTSSKNLLYFAGASIVLALSTKFMFKNGIQFVNWPKLVDVGFLVVHQTHDKEQQFKGLKYAQSPKFSKPDPLKRD
notes: Sac1p PI4P phosphatase, S. cerevisiae; source: yeast, expressed from a plasmid, in detergent-solubilized membrane fraction
  fold of co-purified Sac1p, Fis1p-over-expressing against WT yeast: > 2 fold

B2: yeast His6-Fis1p (natural protein, S. cerevisiae, UniProt P40515 1-155, looked up)
chain: MTKVDFWPTLKDAYEPLYPQQLEILRQQVVSEGGPTATIQSRFNYAWGLIKSTDVNDERLGVKILTDIYKEAESRRRECLYYLTIGCYKLGEYSMAKRYVDTLFEHERNNKQVGALKSMVEDKIQKETLKGVVVAGGVLAGAVAVASFFLRNKRR
notes: Fis1p mitochondrial fission 1 protein, S. cerevisiae; also called HisScFis1; source: yeast, expressed from a plasmid, in detergent-solubilized membrane fraction
  fold reduction of co-purified Fis1p when Dnm1p is co-expressed, against yeast without Dnm1p over-expression: ~8 fold

B3: yeast His6-Osh6p (natural protein, S. cerevisiae, UniProt Q02201 1-448, looked up)
chain: MGSKKLTVGSDSHRLSKSSFSSNKSSHSATKDQPIDTDDIDEDDESGHNIILNIISQLRPGCDLTRITLPTFILEKKSMLERVTNQLQFPEFLLQAHSEKDPLKRFLYVMKWYLAGWHIAPKAVKKPLNPVLGEYFTAYWDLPNKQQAYYISEQTSHHPPECAYFYMIPESSIRVDGVVIPKSRFLGNSSAAMMDGSTVLQFLDIKDGNGKPEKYVLTQPNVYVRGILFGKMRIELGDHMIIKSPNFQADIEFKTKGYVFGTYDAIEGTVKDYDGNAYYEISGKWNDVMYLKDLKQPRSSPKVFLDTHKESPLRPKVRPLSEQGEYESRKLWKKVTDALAVRNHPVATEEKFQIEDHQRQLAKKRIEDGVEFHPKLFRRSKPGEDLDYCIYKNIPVDEDPEKQIRSILQIAPILPGQQFTDKFFIPAFEKIKSQKKMIENEKQNPAKQ
notes: source: yeast, expressed from a plasmid, in detergent-solubilized membrane fraction
  fold of co-purified Osh6p, Fis1p-over-expressing against WT yeast: 3.5 fold more
  fold of co-purified Osh6p, fis1Δ against WT yeast: ~4 fold less
